Measured values published in patent publication US20140322196A1.

Columns and labels:
Assay in all cases: cell-based or functional assay
[1] = target: Hemagglutinin (HA) of Influenza A virus A/Solomon 3/2006 H1N1 (inactivated subunits, vaccine) (Influenza A virus A/Solomon 3/2006 H1N1)
[2] = target: Hemagglutinin (HA) of Influenza A virus A/Wisconsin/67/2005 H3N2 (inactivated subunits, vaccine) (Influenza A virus A/Wisconsin/67/2005 H3N2)
[3] = target: Hemagglutinin (HA) of Influenza A virus A/Parma/24/09 (Brisbane-like) (oseltamivir-resistant) H1N1 (Influenza A virus A/Parma/24/09 H1N1)

| Substance | HI titre [1] | HI titre [2] | HI titre [3] |
| --- | --- | --- | --- |
| … (SEQ ID NO: 2), bLf C-lobe peptide 506-522 | 46.5 fM | 11.6 fM | 1.4 pM |
| Lactoferrin from bovine milk (bLf) (from UniProt P24627 20-708) | 5000 fM | 300 fM | 6000 pM |
| … (SEQ ID NO: 1), bLf C-lobe peptide 418-429 | 46.5 fM | 23.2 fM | 1.4 pM |
